Biological target: human Fas (CD95/APO-1) (human) (UniProt P25445)
Assay: flow cytometric immunofluorescence on 293 cells, 2 ug/ml antibody compared with FITC-conjugated isotype control DAK-G01

Chain of UniProt P25445 (P25445 26-335 limits assumed): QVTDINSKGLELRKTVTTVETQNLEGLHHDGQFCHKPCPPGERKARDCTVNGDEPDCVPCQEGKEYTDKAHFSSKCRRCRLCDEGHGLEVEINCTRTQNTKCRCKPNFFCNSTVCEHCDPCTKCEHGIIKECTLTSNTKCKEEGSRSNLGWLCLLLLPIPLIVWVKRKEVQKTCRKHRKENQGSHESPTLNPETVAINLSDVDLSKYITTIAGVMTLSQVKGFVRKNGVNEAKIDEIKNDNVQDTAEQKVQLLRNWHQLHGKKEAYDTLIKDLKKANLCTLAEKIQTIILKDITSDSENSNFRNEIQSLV

mean Fas fluorescence, fold over nonspecific fluorescence (isotype control): 4.9 fold
Substance: FITC-conjugated mouse IgG1 anti-human Fas receptor (clone DX2, Pharmingen) (antibody)

Source: patent publication US20040224389A1
